Data from the supplement of paper PMC10567573.

B1: SMARCE1 (parent)
chain: YHNSPAYLAYINAKSRAEAALEEE

Variants of: B1
Test: protein stability index of a GFP-peptide fusion (GPS, HEK-293T) (PSI 1-6); higher = more stable
Settings: c terminus: a fixed tail appended
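Also: lentivirally expressed fusions sorted by FACS into six bins by GFP to DsRed ratio, PSI derived from sequencing read proportions per bin multiplied by bin number.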

Protein stability index, by site and new letter:
H2: N 3.77 | C 2.12 | L 2.09 | G 2.65 | I 2.2 | F 2.79 | Y 4.42 | W 2.66
A9: S 2.96 | L 1.5 | D 1.42 | C 1.77 | T 2.24 | K 1.68 | Y 1.74 | R 1.96 | N 2.39 | Q 1.84 | I 2.81 | W 2.21 | E 1.56 | G 2.19 | M 1.38 | V 2.29 | H 2.51 | F 1.94 | P 3.18
A6: T 1.78 | H 2.3 | F 2.06 | Y 2.23 | M 2.07 | N 1.81 | I 2.61 | K 2.22 | V 2.02 | W 2.21 | G 2.37 | R 2.14 | E 2.58 | Q 2.11 | P 1.94 | S 2.43 | D 2.12 | L 1.81 | C 1.77
Y7: E 3.06 | R 2.76 | D 3.12 | H 2.78 | S 2.76 | V 2.91 | N 2.31 | T 2.95 | C 2.26 | F 2.64 | A 2.66 | Q 2.77 | K 3 | M 2.4 | I 2.47 | G 2.31 | W 2.31 | P 2.98 | L 2.28
N3: K 2.89 | C 1.34 | V 2.03 | P 1.55 | H 1.69 | R 2.26 | I 2.08 | F 1.81 | E 2.22 | T 2.19 | L 1.95 | Y 2.87 | W 1.89 | S 1.81 | Q 1.57 | A 2.05 | G 2.28 | D 1.89 | M 2.06
Y1: C 4.74 | Q 5.29 | A 5.18 | L 4.97 | H 4.6 | M 5.08 | E 5.26 | K 4.96 | P 5.16 | T 5.26 | R 4.86 | D 5.28 | N 4.85 | W 4.52 | S 4.85 | F 2.02 | V 4.95 | G 4.65 | I 4.78
P5: A 2.76 | M 2.65 | R 2.99 | Y 2.31 | V 3.69 | E 1.82 | N 2.56 | H 3.81 | D 2.15 | F 3.01 | L 2.92 | C 3.56 | Q 4.02 | G 3.04 | W 2.98 | T 2.46 | I 2.05 | K 2.06 | S 2.67
L8: H 2.12 | C 3.05 | W 2.04 | F 2.93 | M 2.23 | D 2.22 | R 2.47 | S 3.08 | A 3.39 | K 3.83 | Y 2.5 | T 2.81 | I 3.09 | P 1.81 | E 1.8 | Q 3.47 | N 3.65 | G 1.69 | V 2.49
Y10: E 2.94 | A 3.76 | D 2.37 | F 2.32 | G 1.75 | C 2.25 | H 1.68
S4: H 1.91 | G 2.45 | I 2 | F 2.04 | K 1.77 | C 1.56 | N 2.23 | E 2.89 | V 2.44 | D 3.31 | L 2.35 | Y 2.09 | P 1.91 | M 3.39 | A 3.12 | Q 3.3 | W 2.41 | R 2.19 | T 2.6
